Measurements taken from patent US20170253873A1 (MAYO FOUNDATION FOR MEDICAL EDUCATION AND RESEARCH, published 2017).

B1: GST fusion of the first 74 amino acids of SNX9 encoding the SH3 domain (other, UniProt Q9Y5X1 1-74, looked up)
chain: MATKARVMYDFAAEPGNNELTVNEGEIITITNPDVGGGWLEGRNIKGERGLVPTDYVEILPSDGKDQFSCGNSV
notes: range 1-74; also called SH3 domain of sorting nexin 9; SNX9 SH3 domain; not shown: glutathione S-transferase (GST) tag
B2: TAT-SH3-2M (TAT-SH3-2 with G to V mutations at amino acids 36-38) (designed binder)
chain: TVNEGEIITITNPDVVVVWLEGRNIKGERGL
notes: range 21-51; Mutant of TAT-SH3-2; also called Control peptide; not shown: His tag, cell penetrating TAT polypeptide from HIV and HA tag
B3: GST fusion of the carboxyl half of SNX9 (Phox and BAR domains) (other, UniProt Q9Y5X1 204-595, looked up)
chain: PLNKFPGFAKPGTEQYLLAKQLAKPKEKIPIIVGDYGPMWVYPTSTFDCVVADPRKGSKMYGLKSYIEYQLTPTNTNRSVNHRYKHFDWLYERLLVKFGSAIPIPSLPDKQVTGRFEEEFIKMRMERLQAWMTRMCRHPVISESEVFQQFLNFRDEKEWKTGKRKAERDELAGVMIFSTMEPEAPDLDLVEIEQKCEAVGKFTKAMDDGVKELLTVGQEHWKRCTGPLPKEYQKIGKALQSLATVFSSSGYQGETDLNDAITEAGKTYEEIASLVAEQPKKDLHFLMECNHEYKGFLGCFPDIIGTHKGAIEKVKESDKLVATSKITLQDKQNMVKRVSIMSYALQAEMNHFHSNRIYDYNSVIRLYLEQQVQFYETIAEKLRQALSRFPVM
notes: domain: Phox and BAR domains; not shown: glutathione S-transferase (GST) tag
B4: phosphorylated Smad2 (pSmad2) (other, UniProt Q62432 2-467, looked up)
chain: SSILPFTPPVVKRLLGWKKSAGGSGGAGGGEQNGQEEKWCEKAVKSLVKKLKKTGRLDELEKAITTQNCNTKCVTIPSTCSEIWGLSTANTVDQWDTTGLYSFSEQTRSLDGRLQVSHRKGLPHVIYCRLWRWPDLHSHHELKAIENCEYAFNLKKDEVCVNPYHYQRVETPVLPPVLVPRHTEILTELPPLDDYTHSIPENTNFPAGIEPQSNYIPETPPPGYISEDGETSDQQLNQSMDTGSPAELSPTTLSPVNHSLDLQPVTYSEPAFWCSIAYYELNQRVGETFHASQPSLTVDGFTDPSNSERFCLGLLSNVNRNATVEMTRRHIGRGVRLYYIGGEVFAECLSDSAIFVQSPNCNQRYGWHPATVCKIPPGCNLKIFNNQEFAALLAQSVNQGFEAVYQLTRMCTIRMSFVKGWGAEYRRQTVTSTPCWIELHLNGPLQWLDKVLTQMGSPSVRCSSMS
modifications: phosphorylated (sites not given)
notes: Endogenous protein from AKR-2B cell lysate, detected by Western blot with a phospho-Smad2 specific antibody
B5: GST fusion of the amino half of SNX9 (SH3 and low complexity (LC) domains) (other, UniProt Q9Y5X1 1-203, looked up)
chain: MATKARVMYDFAAEPGNNELTVNEGEIITITNPDVGGGWLEGRNIKGERGLVPTDYVEILPSDGKDQFSCGNSVADQAFLDSLSASTAQASSSAASNNHQVGSGNDPWSAWSASKSGNWESSEGWGAQPEGAGAQRNTNTPNNWDTAFGHPQAYQGPATGDDDDWDEDWDGPKSSSYFKDSESADAGGAQRGNSRASSSSMKI
notes: domain: SH3 and low complexity (LC) domains; also called amino terminal peptide; not shown: glutathione S-transferase (GST) tag
B6: GST fusion of the LC (low complexity) domain of SNX9 (other, UniProt Q9Y5X1 63-203, looked up)
chain: DGKDQFSCGNSVADQAFLDSLSASTAQASSSAASNNHQVGSGNDPWSAWSASKSGNWESSEGWGAQPEGAGAQRNTNTPNNWDTAFGHPQAYQGPATGDDDDWDEDWDGPKSSSYFKDSESADAGGAQRGNSRASSSSMKI
notes: domain: LC domain; It overlaps the 1-74 fragment; also called LC domain; not shown: glutathione S-transferase (GST) tag

Columns and labels:
[1] = target: B4; assay: GST pull-down from AKR-2B lysate, Western blot
Experimental: (§1) Lysates from AKR-2B cells untreated (−) or stimulated (+) for 45 minutes with 5 ng/mL TGFβ were incubated with GST beads or the indicated fusion polypeptides immobilized on GST beads. Bound polypeptides were eluted and assessed by Western analysis for pSmad3 or pSmad2. Cell lysate reflects signal obtained from 10 μg total protein. (B) AKR-2B cells were transduced for 90 minutes with the indicated concentrations of the TAT-SNX9(SH3) fusion polypeptides. Following washing and 1 hour TGFβ (5 ng/mL) treatment, nuclear fractions were isolated, and Western blotted for pSmad2, pSmad3, or histone deacetylase 1 (HDAC) (Left). Quantitation of nuclear pSmads was performed with Image J software and represents the mean+/−sd of two experiments (Right). […] Immunofluorescence for Smad3 or the HA-tagged TAT-SNX9(SH3) fusion polypeptide was performed, and nuclei were stained with DAPI (Left panels). Quantitation of nuclear Smad3 from 30 cells in each of two experiments (Right).
(§2) To assess SNX9 binding to GST or His constructs, cells were incubated in the presence or absence of 5 ng/mL TGFβ for 45 minutes. Following RIPA buffer lysis, 500 μg of protein was precleared with GST Resin or TALON Metal Affinity Resin for 2 hours at 4° C. Precleared cell lysates were then treated with 5 μg purified GST- or His-fusion proteins and incubated overnight at 4° C. with gentle shaking. Following addition of GST or TALON Metal Affinity Resin and 2 hours of incubation, the pelleted (3,000×g; 10 minutes) resin was washed several times with PBS, and the remaining proteins were eluted using 1× Laemmli sample buffer. Western blotting was performed as described above.

[2] = target: T1, phosphorylated Smad3 (pSmad3) (UniProt Q8BUN5 2-425, phosphorylated (sites not given)); assay: His pull-down from AKR-2B lysate, Western blot
T1 construct: Endogenous protein from AKR-2B cell lysate, detected by Western blot with a phospho-Smad3 specific antibody; also called phosphorylated (p) Smad3
T1 sequence (Q8BUN5 2-425 limits assumed): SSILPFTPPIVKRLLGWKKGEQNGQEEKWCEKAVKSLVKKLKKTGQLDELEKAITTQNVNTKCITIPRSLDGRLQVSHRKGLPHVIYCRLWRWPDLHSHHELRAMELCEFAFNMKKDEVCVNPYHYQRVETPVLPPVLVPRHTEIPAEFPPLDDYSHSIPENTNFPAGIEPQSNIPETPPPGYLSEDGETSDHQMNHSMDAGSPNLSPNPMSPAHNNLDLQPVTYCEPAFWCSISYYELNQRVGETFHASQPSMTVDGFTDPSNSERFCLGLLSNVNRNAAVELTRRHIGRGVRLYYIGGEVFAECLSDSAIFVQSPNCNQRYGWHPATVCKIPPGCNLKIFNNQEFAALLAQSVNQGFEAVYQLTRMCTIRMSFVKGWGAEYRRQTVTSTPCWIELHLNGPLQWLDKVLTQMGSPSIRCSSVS

[3] = target: T1, phosphorylated Smad3 (pSmad3); assay: GST pull-down from AKR-2B lysate, Western blot
Experimental: as §1, §2

[4] = target: T2, GST full length (FL) SNX9 (UniProt Q9Y5X1 1-595); assay: GST pull-down from AKR-2B lysate, Western blot
T2 construct: GST fusion used in pull-down; also called GST-FL SNX9; not shown: glutathione S-transferase (GST) tag

| Binder | binding result [1] | further results |
| --- | --- | --- |
| B1 | no binding | – |
| B2 | – | binding result [2]: no binding |
| B3 | no binding | binding result [3]: no binding |
| B4 | – | binding result [4]: no binding |
| B5 | no binding | – |
| B6 | no binding | – |
